± gives the standard deviation of the averaged measurements.
Tested on: Sindbis virus TE/5'2J-GFP
Assay: percent infected (GFP+ in RFP+ ISG-expressing cells); higher = more infection (less antiviral activity)
Method: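 Confirmatory testing of 87 ISGs. Triplicate wells of BHK/HA-Zeo (control) or BHK/NZAP-Zeo (ZAP) cells were transduced with lentiviruses co-expressing a human ISG plus TagRFP, then infected 48 h later with SINV TE/5'2J-GFP (moi 5). The % GFP+ cells among RFP+ cells was measured by flow cytometry at 8 h post infection. Fluc lentivirus served as control. Three independent experiments.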

[1] = experiment: confirmatory screen 1, BHK/HA-Zeo (control)
[2] = experiment: confirmatory screen 1, BHK/NZAP-Zeo (ZAP)
[3] = experiment: confirmatory screen 2, BHK/HA-Zeo (control)
[4] = experiment: confirmatory screen 2, BHK/NZAP-Zeo (ZAP)
[5] = experiment: confirmatory screen 3, BHK/HA-Zeo (control)
[6] = experiment: confirmatory screen 3, BHK/NZAP-Zeo (ZAP)
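Also: Interferon-defective BHK-21 derivatives, ZAP line overexpressing the rat ZAP N-terminal zinc finger domain fused to Zeocin resistance, GFP scored within live singlet TagRFP+ cells.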

Substance	percent infected [1]	percent infected [2]	percent infected [3]	percent infected [4]	percent infected [5]	percent infected [6]
MAPEINLPGPMSLIDNTKGQLVVNPEALKILSAITQPVVVVAIVGLYRTGKSYLMNKLAGKKNGFSLGSTVKSHTKGIWMWCVPHPKKPEHTLVLLDTEGLGDIEKGDNENDSWIFALAILLSSTFVYNSMGTINQQAMDQLHYVTELTDRIKANSSPGNNSVDDSADFVSFFPAFVWTLRDFTLELEVDGEPITADDYLELSLKLRKGTDKKSKSFNDPRLCIRKFFPKRKCFVFDWPAPKKYLAHLEQLKEEELNPDFIEQVAEFCSYILSHSNVKTLSGGIPVNGPRLESLVLTYVNAISSGDLPCMENAVLALAQIENSAAVEKAIAHYEQQMGQKVQLPTETLQELLDLHRDSEREAIEVFMKNSFKDVDQMFQRKLGAQLEARRDDFCKQNSKASSDCCMALLQDIFGPLEEDVKQGTFSKPGGYRLFTQKLQELKNKYYQVPRKGIQAKEVLKKYLESKEDVADALLQTDQSLSEKEKAIEVERIKAESAEAAKKMLEEIQKKNEEMMEQKEKSYQEHVKQLTEKMERDRAQLMAEQEKTLALKLQEQERLLKEGFENESKRLQKDIWDIQMRSKSLEPICNIL [GBP2]	96.3 ± 0.94%	80.8 ± 0.62%	94.84 ± 0.44%	95.94 ± 0.23%	93.28 ± 0.57%	94.23 ± 0.41%
MGERTLHAAVPTPGYPESESIMMAPICLVENQEEQLTVNSKALEILDKISQPVVVVAIVGLYRTGKSYLMNRLAGKRNGFPLGSTVQSETKGIWMWCVPHLSKPNHTLVLLDTEGLGDVEKSNPKNDSWIFALAVLLSSSFVYNSVSTINHQALEQLHYVTELAELIRAKSCPRPDEAEDSSEFASFFPDFIWTVRDFTLELKLDGNPITEDEYLENALKLIPGKNPKIQNSNMPRECIRHFFRKRKCFVFDRPTNDKQYLNHMDEVPEENLERHFLMQSDNFCSYIFTHAKTKTLREGIIVTGKRLGTLVVTYVDAINSGAVPCLENAVTALAQLENPAAVQRAADHYSQQMAQQLRLPTDTLQELLDVHAACEREAIAVFMEHSFKDENHEFQKKLVDTIEKKKGDFVLQNEEASAKYCQAELKRLSEHLTESILRGIFSVPGGHNLYLEEKKQVEWDYKLVPRKGVKANEVLQNFLQSQVVVEESILQSDKALTAGEKAIAAERAMKEAAEKEQELLREKQKEQQQMMEAQERSFQEYMAQMEKKLEEERENLLREHERLLKHKLKVQEEMLKEEFQKKSEQLNKEINQLKEKIESTKNEQLRLLKILDMASNIMIVTLPGASKLLGVGTKYLGSRI [GBP4]	95 ± 2.1%	63 ± 6%	95.8 ± 0.54%	95.49 ± 0.44%	94.22 ± 0.7%	94.93 ± 0.31%
MPVERMRMRPWLEEQINSNTIPGLKWLNKEKKIFQIPWMHAARHGWDVEKDAPLFRNWAIHTGKHQPGVDKPDPKTWKANFRCAMNSLPDIEEVKDKSIKKGNNAFRVYRMLPLSERPSKKGKKPKTEKEDKVKHIKQEPVESSLGLSNGVSDLSPEYAVLTSTIKNEVDSTVNIIVVGQSHLDSNIENQEIVTNPPDICQVVEVTTESDEQPVSMSELYPLQISPVSSYAESETTDSVPSDEESAEGRPHWRKRNIEGKQYLSNMGTRGSYLLPGMASFVTSNKPDLQVTIKEESNPVPYNSSWPPFQDLPLSSSMTPASSSSRPDRETRASVIKKTSDITQARVKSC [IRF2]	81 ± 3.7%	2.58 ± 0.4%	94.34 ± 0.74%	60.4 ± 1.6%	89.4 ± 1.2%	39.2 ± 2.8%
MNTRNRVVNSGLGASPASRPTRDPQDPSGRQGELSPVEDQREGLEAAPKGPSRESVVHAGQRRTSAYTLIAPNINRRNEIQRIAEQELANLEKWKEQNRAKPVHLVPRRLGGSQSETEVRQKQQLQLMQSKYKQKLKREESVRIKKEAEEAELQKMKAIQREKSNKLEEKKRLQENLRREAFREHQQYKTAEFLSKLNTESPDRSACQSAVCGPQSSTWKLPILPRDHSWARSWAYRDSLKAEENRKLQKMKDEQHQKSELLELKRQQQEQERAKIHQTEHRRVNNAFLDRLQGKSQPGGLEQSGGCWNMNSGNSWGI [EPSTI1]	96.8 ± 1.1%	68.2 ± 2.1%	96.8 ± 1.1%	95.946 ± 0.041%	94.88 ± 0.77%	94.41 ± 0.1%
MASVIPASNRSMRSDRNTYVGKRFVHVKNPYLDLMDEDILYHLDLGTKTHNLPAMFGDVKFVCVGGSPNRMKAFALFMHKELGFEEAEEDIKDICAGTDRYCMYKTGPVLAISHGMGIPSISIMLHELIKLLHHARCCDVTIIRIGTSGGIGIAPGTVVITDIAVDSFFKPRFEQVILDNIVTRSTELDKELSEELFNCSKEIPNFPTLVGHTMCTYDFYEGQGRLDGALCSFSREKKLDYLKRAFKAGVRNIEMESTVFAAMCGLCGLKAAVVCVTLLDRLDCDQINLPHDVLVEYQQRPQLLISNFIRRRLGLCD [UPP2]	74.9 ± 4.2%	43.1 ± 2.3%	89.79 ± 0.72%	93.4 ± 1.3%	83.4 ± 1.3%	88.3 ± 1.5%
MAGIELERCQQQANEVTEIMRNNFGKVLERGVKLAELQQRSDQLLDMSSTFNKTTQNLAQKKCWENIRYRICVGLVVVGVLLIILIVLLVVFLPQSSDSSSAPRTQDAGIASGPGN [VAMP5]	97.4 ± 0.76%	78.6 ± 3.2%	96.57 ± 0.3%	94.74 ± 0.23%	93.95 ± 0.59%	93.52 ± 0.17%
PRIC285	94.6 ± 2.5%	53.7 ± 6.2%	96.59 ± 0.24%	95.01 ± 0.88%	83.7 ± 1.5%	87.13 ± 0.73%
MPITRMRMRPWLEMQINSNQIPGLIWINKEEMIFQIPWKHAAKHGWDINKDACLFRSWAIHTGRYKAGEKEPDPKTWKANFRCAMNSLPDIEEVKDQSRNKGSSAVRVYRMLPPLTKNQRKERKSKSSRDAKSKAKRKSCGDSSPDTFSDGLSSSTLPDDHSSYTVPGYMQDLEVEQALTPALSPCAVSSTLPDWHIPVEVVPDSTSDLYNFQVSPMPSTSEATTDEDEEGKLPEDIMKLLEQSEWQPTNVDGKGYLLNEPGVQPTSVYGDFSCKEEPEIDSPGGDIGLSLQRVFTDLKNMDATWLDSLLTPVRLPSIQAIPCAP [IRF1]	67.2 ± 42%	10.7 ± 6.3%	61.6 ± 1.6%	1.14 ± 0.73%	29.2 ± 22%	0.16 ± 0.079%
MLRGISQLPAVATMSWVLLPVLWLIVQTQAIAIKQTPELTLHEIVCPKKLHILHKREIKNNQTEKHGKEERYEPEVQYQMILNGEEIILSLQKTKHLLGPDYTETLYSPRGEEITTKPENMEHCYYKGNILNEKNSVASISTCDGLRGYFTHHHQRYQIKPLKSTDEKEHAVFTSNQEEQDPANHTCGVKSTDGKQGPIRISRSLKSPEKEDFLRAQKYIDLYLVLDNAFYKNYNENLTLIRSFVFDVMNLLNVIYNTIDVQVALVGMEIWSDGDKIKVVPSASTTFDNFLRWHSSNLGKKIHDHAQLLSGISFNNRRVGLAASNSLCSPSSVAVIEAKKKNNVALVGVMSHELGHVLGMPDVPFNTKCPSGSCVMNQYLSSKFPKDFSTSCRAHFERYLLSQKPKCLLQAPIPTNIMTTPVCGNHLLEVGEDCDCGSPKECTNLCCEALTCKLKPGTDCGGDAPNHTTE [ADAMDEC1]	94 ± 2.1%	66.9 ± 6.3%	96.2 ± 0.17%	95.52 ± 0.43%	94.82 ± 0.19%	94.56 ± 0.34%
MMAQSKANGSHYALTAIGLGMLVLGVIMAMWNLVPGFSAAEKPTAQGSNKTEVGGGILKSKTFSVAYVLVGAGVMLLLLSICLSIRDKRKQRQGEDLAHVQHPTGAGPHAQEEDSQEEEEEDEEAASRYYVPSYEEVMNTNYSEARGEEQNPRLSISLPSYESLTGLDETTPTSTRADVEASPGNPPDRQNSKLAKRLKPLKVRRIKSEKLHLKDFRINLPDKNVPPPSIEPLTPPPQYDEVQEKAPDTRPPD [TMEM51]	94.9 ± 1.4%	61.1 ± 4.6%	95.13 ± 0.15%	94.94 ± 0.49%	93.31 ± 0.41%	92.77 ± 0.37%

— the supplement of paper PMC3353916
